Like-named read-outs stand apart in the source and are kept apart here. No end group written: not given here.
Legend:
[1] = target: full-length SlyD from Thermus thermophilus (TtSlyDFL) (Thermus thermophilus)
[2] = target: full-length SlyD from Thermus thermophilus (TtSlyDFL) (Thermus thermophilus); remark: listed apart in the source

Binder WNPKMKP-NH2 [S2-short8 peptide] has a Kd [1] of 163 µM, a dH [1] of -5.1 kcal/mol and a stoichiometry N [1] of 1.29.

Work on VGSNSYPHKYNNYEG-NH2 [T1 peptide] yielded a Kd [2] of 158 µM, a dH [2] of -14.6 kcal/mol and a stoichiometry N [2] of 1.13.

Work on SGLVPRGS-NH2 [SlpA linker peptide] yielded a Kd [2] of 133 µM, a dH [2] of -0.4 kcal/mol and a stoichiometry N [2] of 1.44.
